In patent publication US20180179274A1 (INSTITUTE FOR RESEARCH IN BIOMEDICINE, published 2018):

Molecular target: T1, RIFIN PF3D7_1400600 (Plasmodium falciparum)
T1 construct: A-type RIFIN; on transfected CHO cells, and native from 3D7-MGD21^+ IEs in the immunoprecipitation
T1 chain: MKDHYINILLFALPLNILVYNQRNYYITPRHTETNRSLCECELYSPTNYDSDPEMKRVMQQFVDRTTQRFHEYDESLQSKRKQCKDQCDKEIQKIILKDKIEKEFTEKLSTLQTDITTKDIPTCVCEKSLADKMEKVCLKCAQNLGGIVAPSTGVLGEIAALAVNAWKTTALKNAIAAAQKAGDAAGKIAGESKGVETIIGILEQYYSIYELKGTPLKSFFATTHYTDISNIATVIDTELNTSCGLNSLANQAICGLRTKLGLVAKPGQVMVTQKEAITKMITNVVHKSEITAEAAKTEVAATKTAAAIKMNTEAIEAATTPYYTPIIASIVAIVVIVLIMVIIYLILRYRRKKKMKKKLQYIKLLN
Assay: immunoprecipitation and LC-MS

B1: MGD21 (antibody)
VH: EVQLVETGPGLMKTSGTLSLTCAVSGDYVNTNRRWSWVRQAPGKGLEWIGEVHQSGRTNYNPSLKSRVTISVDKSKNQFSLKVDSVTAADTAVYYCARASPLKSQRDTDLPRPSISAEPGTVIPLGSHVTFVCRGPVGVQTFRLERERNYLYSDTEDVSQTSPSESEARFRIDSVNAGNAGLFRCIYYKSRKWSEQSDYLELVVKGEDVTWALSQSQDDPRACPQGELPISTDIYYVDVWGNGTTVTVSS
VL: AIRMTQSPSSLSASPGDKVSITCRASQHINDSLAWFQQRPGKAPKLLIYGASNLHSGVPSRFSGTGSGTDFTLTITGLQSEDFATYFCQQCNCFPPDFGQGTRLEIK
notes: Donor D; LAIR-1 insert in CDRH3; variable regions only; also called MGD21 ANTIBODY; mAb MGD21
- log2 fold change (MGD21 immunoprecipitates of 3D7-MGD21^+ against 3D7-MGD21^- IEs): 2 log2 fold
